Results on three substances are retold here after paper PMC7641127, “MCL1 binds and negatively regulates the transcriptional function of tumor suppressor p73” (Cell Death & Disease, 2020).

The target in assay [1] is recombinant MCL1 (human) (UniProt Q07820). As to the kind of experiment: fluorescence polarisation; direct FPA: recombinant MCL1 with FITC-peptide, 30 min, 1× PBS pH 7.4; limit of detection of the probe 5 nM.
Assay [2] has the same target. Kind of assay: fluorescence polarisation; competitive FPA: 50 nM recombinant MCL1, 10 nM F-BAK, titration of unlabeled p73 peptide or p73DBD, 1× PBS pH 7.4. Background: Fluorescence polarisation rises when a labelled molecule tumbles more slowly, as on binding a larger partner.
Assay [3] addresses recombinant p73 DBD-TD (amino acids 112–398) (human) (UniProt O15350).

Chain of recombinant p73 DBD-TD (amino acids 112–398) (human) (O15350 112-398): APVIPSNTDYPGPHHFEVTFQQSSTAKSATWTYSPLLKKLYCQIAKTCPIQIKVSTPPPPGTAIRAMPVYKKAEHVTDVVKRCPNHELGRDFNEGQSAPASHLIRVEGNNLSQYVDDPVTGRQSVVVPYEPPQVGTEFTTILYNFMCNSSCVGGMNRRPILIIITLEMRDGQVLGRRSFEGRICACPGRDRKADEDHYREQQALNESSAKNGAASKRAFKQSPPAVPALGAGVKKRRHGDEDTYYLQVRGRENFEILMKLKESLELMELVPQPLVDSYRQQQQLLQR

Usually Kd stands for the equilibrium constant for the complex coming apart. On to “N-terminally labeled FITC-p73_(23mer) peptide”, for which the Kd in assay [1] was under 5 nM.

By IC50 is commonly meant the concentration at which inhibition is half-maximal. As for “p73_(23mer) peptide (23 amino acids, from the p73 tetramerization domain), unlabeled”, the IC50 in assay [2] was found to be 982 nM.

For “recombinant MCL1 (from UniProt Q07820 1-350) (natural protein)”, the decrease in EMSA: binding of 10 μM p73 (DBD-TD) to 1 μM FITC-GADD45 DNA on titration of recombinant MCL1 (10–200 μM), free probe quantified in assay [3] was found to be 27%.
